1 molecule from US20060147914A1 (Johns Hopkins, published 2006) can be followed below.

For the test, the target named is T1, native mGluR5 in detergent extracts of rat hippocampus (rat, UniProt P31424 21-1203, limits assumed).
T1 construct: Native protein in tissue lysate
Kind of test: in vitro binding assay with detergent extracts of hippocampus.

T1 sequence (P31424 21-1203 limits assumed): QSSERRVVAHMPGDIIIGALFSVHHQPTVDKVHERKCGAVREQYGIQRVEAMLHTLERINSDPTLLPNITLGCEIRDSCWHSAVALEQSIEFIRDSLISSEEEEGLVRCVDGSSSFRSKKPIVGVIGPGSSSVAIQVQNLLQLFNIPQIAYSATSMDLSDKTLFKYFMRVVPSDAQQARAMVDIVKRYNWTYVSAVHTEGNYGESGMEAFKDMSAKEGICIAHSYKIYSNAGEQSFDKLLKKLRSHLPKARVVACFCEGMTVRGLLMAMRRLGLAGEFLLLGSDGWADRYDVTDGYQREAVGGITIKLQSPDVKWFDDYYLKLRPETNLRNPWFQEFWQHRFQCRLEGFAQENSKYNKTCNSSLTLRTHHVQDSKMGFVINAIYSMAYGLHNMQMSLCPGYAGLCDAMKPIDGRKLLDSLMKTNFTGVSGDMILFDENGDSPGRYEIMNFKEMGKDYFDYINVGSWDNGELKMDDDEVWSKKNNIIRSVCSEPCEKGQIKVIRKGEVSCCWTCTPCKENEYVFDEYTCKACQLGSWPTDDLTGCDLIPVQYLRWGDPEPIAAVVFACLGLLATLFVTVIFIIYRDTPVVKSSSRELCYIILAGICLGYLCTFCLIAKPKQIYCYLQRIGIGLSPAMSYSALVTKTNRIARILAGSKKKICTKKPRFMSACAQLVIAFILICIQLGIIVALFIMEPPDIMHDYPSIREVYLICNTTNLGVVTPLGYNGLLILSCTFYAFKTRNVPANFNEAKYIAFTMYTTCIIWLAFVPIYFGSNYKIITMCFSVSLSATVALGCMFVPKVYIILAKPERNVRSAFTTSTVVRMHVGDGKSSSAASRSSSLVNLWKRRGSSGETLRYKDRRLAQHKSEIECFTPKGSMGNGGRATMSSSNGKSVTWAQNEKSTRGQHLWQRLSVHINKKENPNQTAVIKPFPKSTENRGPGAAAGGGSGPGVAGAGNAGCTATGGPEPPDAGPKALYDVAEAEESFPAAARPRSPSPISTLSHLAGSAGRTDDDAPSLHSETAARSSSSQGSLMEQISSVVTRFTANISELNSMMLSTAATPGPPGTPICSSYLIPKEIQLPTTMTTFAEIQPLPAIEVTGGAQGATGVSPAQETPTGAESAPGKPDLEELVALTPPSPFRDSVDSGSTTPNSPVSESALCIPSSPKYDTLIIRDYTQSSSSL
Procedure: 40 ml of beads were then incubated with lysate from one hippocampus for one hour at 4° C., washed three times with PBS, and bound mGluR5 was eluted by boiling in 3× loading buffer.

B1: GST-Homer fusion protein (rat Homer) used with hippocampal extracts (other)
chain: GEQPIFSTRAHVFQIDPNTKKNWVPTSKHAVTVSYFYDSTRNVYRIISLDGSKAIINSTITPNMTFTKTSQKFGQWADSRANTVYGLGFSSEHHLSKFAEKFQEFKEAARLAKEKSQEKMELTSTPSQESAGGDLQSPLTPESINGTDDERTPDVTQNSEPRAEPAQNALPFSHRYTFNSAIMIK
notes: also called Homer GST fusion protein; Homer GST-fusion protein; not shown: glutathione S-transferase (GST) fusion partner, bacterially expressed
B1: the binding result is “binds”.
